Laboratory results reported in the supplement of paper PMC10567573.

B1: IMPA1 (parent)
chain: FIGEESVAAGEKSILTDNPTWIID

Variants of: B1
Assay: protein stability index of a GFP-peptide fusion (GPS, HEK-293T) (PSI 1-6); higher = more stable
Settings: c terminus: a fixed tail appended
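Further: lentivirally expressed fusions sorted by FACS into six bins by GFP to DsRed ratio, PSI derived from sequencing read proportions per bin multiplied by bin number.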

Protein stability index: each site, then its substitutions
V7: T 2.28; K 2.53; Y 2.01; H 2.06; R 1.85; I 1.92; F 2.05; A 2.46; P 2.19; Q 2.19; C 2; S 2.17; W 1.94; D 2.71
S6: I 1.73; K 1.57; G 2.42; H 2.29; N 2.25; A 2.01; W 2.53; D 2.56; L 2.24; Y 1.51; V 1.7; P 3.1; T 2.23; M 2.07
I2: A 2.59; R 4.28; H 2.59; N 4.25; W 2.74; L 2.99; P 3.05; E 4.82; S 3.65; G 4.24; V 1.1; Q 3.89; C 2.27
E4: P 1.77; T 1.85; Y 1.9; K 1.83; Q 1.5; L 1.8; W 3.71; R 2.04; G 2.14; D 2.01; I 1.84; A 2.54; M 2.35; N 1.98
D17: P 2; Q 1.78; H 1.93; V 1.55; W 2.23; G 2.08; S 1.71; T 1.63; K 1.46; A 1.54; L 2.06; E 2.6; R 1.68; Y 1.48; I 2.7
E5: L 1.71; Y 2.52; T 2.38; M 2.31; W 1.29; P 2.35; H 1.93; I 3.46; S 1.92; A 2.05; F 3.35; G 2.79; D 1.89; R 2
A9: N 2.03; C 1.84; Q 2.24; K 1.96; Y 2.59; L 1.78; H 1.8; S 1.95; F 2.04; V 2.31; D 2.98; P 2.52; R 1.5
E11: R 1.49; A 1.86; F 2.57; H 1.7; M 2.01; T 2.3; W 1.37; V 1.92; I 2.1; S 2.17; L 1.77; C 1.98; P 1.53
G3: N 1.99; S 1.89; C 1.31; F 1.93; Y 1.88; T 1.92; M 1.78; R 1.64; Q 2.52; D 3.27; H 1.86; L 1.6; I 1.4
I14: N 2.23; H 2.44; L 1.78; R 1.99; M 2.15; K 2.54; F 1.5; Y 1.91; Q 2.01; S 2.32; C 1.68; E 2.31; V 2.23; T 2.6
A8: W 1.74; S 2.3; M 2.05; F 1.84; H 1.75; Y 2.39; T 2.13; Q 2.29; L 2.08; V 2.52; I 1.58; C 1.55; D 2.72; K 2.35; P 2.54; N 2.23; E 2.79
D24: I 1.16; V 1.86; M 2.05; G 2.44; Y 2.33; R 1.59; N 1.66; C 1.72; A 1.71; Q 2.15; T 1.7; K 2.07; P 2.04
